The source of these data is doi:10.1101/473132.

The test has as its target H3K9me3 mononucleosome with one disulfide bridge between H3 I62C and H4 A33C (oxidized) (X. laevis). The test is described as follows: fluorescence polarisation.

Chain of Swi6 (S. pombe HP1 protein) (P40381 whole entry): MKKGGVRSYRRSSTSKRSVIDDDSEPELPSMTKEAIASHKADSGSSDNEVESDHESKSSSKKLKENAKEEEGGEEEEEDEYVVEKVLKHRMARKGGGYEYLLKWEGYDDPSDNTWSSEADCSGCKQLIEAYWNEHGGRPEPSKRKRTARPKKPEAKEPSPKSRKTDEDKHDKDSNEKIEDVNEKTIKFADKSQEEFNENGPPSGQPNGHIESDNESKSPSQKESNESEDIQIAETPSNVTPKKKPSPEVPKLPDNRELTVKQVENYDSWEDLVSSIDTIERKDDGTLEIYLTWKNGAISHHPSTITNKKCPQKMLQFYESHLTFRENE

In turn, “Swi6 (S. pombe HP1 protein) (from UniProt P40381 1-328) (natural protein)” showed a Kd of 300 nM. In other words, the sub-micromolar range.
